{
  "source": "paper PMC5809250",
  "assay_in_all_cases": "AUC",
  "key": {"[1]": {"target": "Advate (recombinant full-length factor VIII, HC–LC heterodimer) (human) (UniProt P00451)"}, "[2]": {"target": "Helixate FS (recombinant full-length factor VIII, HC–LC heterodimer) (human) (UniProt P00451)"}, "[3]": {"target": "Kogenate FS (recombinant full-length factor VIII, HC–LC heterodimer) (human) (UniProt P00451)"}},
  "data": [
    {"substance": "Advate (recombinant full-length factor VIII, HC–LC heterodimer) (from UniProt P00451 20-1332; P00451 1668-2351) (complex)", "values": [
      {"measurement": "percent of the A280 signal in the 12–20 S distribution (Lot 2)", "setting": "[1]", "result": 3.8, "unit": "%"},
      {"measurement": "percent of the protein-related absorbance signal in the 10.5–10.6 S peak", "setting": "[1]", "result": 7, "unit": "%"},
      {"measurement": "stoichiometry N", "setting": "[1]", "result": 2}
    ]},
    {"substance": "Helixate FS (recombinant full-length factor VIII, HC–LC heterodimer) (from UniProt P00451 20-1332; P00451 1668-2351) (complex)", "values": [
      {"measurement": "stoichiometry N", "setting": "[2]", "result": 2}
    ]},
    {"substance": "Kogenate FS (recombinant full-length factor VIII, HC–LC heterodimer) (from UniProt P00451 20-1332; P00451 1668-2351) (complex)", "values": [
      {"measurement": "percent of the protein-related absorbance signal in the 10.5–10.6 S peak", "setting": "[3]", "result": 5, "unit": "%"},
      {"measurement": "stoichiometry N", "setting": "[3]", "result": 2}
    ]}
  ]
}
